# In US20210246224A1 (Regeneron, published 2021):
# B1: H4H25017D (bispecific antibody, IgG4, V domains shown)
# VH 1: QVQLVQSGPEVKKPGASVKVSCKASGYTFPNFGISWVRQAPGQGLEWMGWIAPYNVATNYAPKLQGRVTMTTDTSTSTAYMELRSLRSDDTAVYYCARWGAGYMGYYYYGMDVWGQGTTVTVSS
# VH 2: EVQLVESGGGLVQPGGSLRLSCAASGFTFSTYVMSWVRQAPGKGPEWVSGISGRTGTTYYADSVKGRFTISRDNSKNTLYLQMNSLRAEDTAVYYCASRITAAGRGYYYYYGMDVWGRGTTVTVSS
# VL: not shown
# notes: Wild-type kappa CL and a modified (chimeric) IgG4 CH domain as set forth in US20140243504A1; also called bispecific anti-HER2xAPLP2 antibody
# What was measured:
# [1] = biological target: T1, human HER2 expressed on cells (cancer cell lines and normal primary cultures) (human, UniProt P04626 23-1255); experiment: imaging, Alexa647-labelled antibody 10 ug/mL at 4 C on MDA-MB-468 cells; signal per nuclei, normalised to the highest cell line
# T1 construct: Endogenous HER2 of the cell lines; the same cells also express APLP2; also called human epidermal growth factor receptor 2
# Protocol: (§1) After, cells were washed twice with cold DMEM+10% FBS. […] After, the solution was replaced with DPBS/CM. Binding of the bispecific antibodies to each of the cell types was measured using an Image Xpress^Micro automatic microscope (Molecular Devices). […] (See also FIG. 2.)
# (§2) The signal of antibody binding (mean intensity fluorescence of Alexa647) divided by the nuclei signals was determined for each condition using MetaXpress software (Molecular Devices). Values were normalized to the cell line displaying the highest antibody binding signal.
# [2] = biological target: T1, human HER2 expressed on cells (cancer …); experiment: imaging, Alexa647-labelled antibody 10 ug/mL at 4 C on JIMT-1 cells; signal per nuclei, normalised to the highest cell line
# Protocol: as §1, §2
# [3] = biological target: T1, human HER2 expressed on cells (cancer …); experiment: imaging, Alexa647-labelled antibody on MDA-MB-361 cells at 4 C; competitor hAPLP2-MMH
# Protocol: (§3) For the assay, cells were plated on collagen-coated, black wall, 96-well, optical plates (Greiner, Cat #655936) at 2.5×10⁵ cells per well in their appropriate culture media (described in previous examples), and incubated overnight at 37° C. in 5% CO₂. The next day, the cells were placed in refrigeration at 4° C. for 30 minutes. […] To each antibody solution, either PBS alone, human HER2 extracellular domain expressed with a C-terminal myc-myc-hexahistidine tag (hHER2-MMH; SEQ ID NO: 53) alone, human APLP2 extracellular domain expressed with a C-terminal myc-myc-hexahistidine tag (hAPLP2-MMH; SEQ ID NO: 54) alone, or the combination of hHER2-MMH and hAPLP2-MMH was added at a concentration of […]. After incubation, and removal of culture media, 50 μL/well of the bispecific antibody and soluble protein solutions were added to the cells for 30 minutes at 4° C. The cells were subsequently washed with 150 μL/well of DMEM containing 10% FBS at 4° C. for 10 minutes. […] The fixing buffer was then removed, 100 uL of DPBS/CM was added and allowed to incubate for approximately 20 minutes at room temperature prior to image acquisition. Binding of the bispecific antibodies to each of the cell types was measured using an Image Xpress^Micro automatic microscope (Molecular Devices). Data acquired was analyzed using MetaXpress software (Molecular Devices). […]
# [4] = biological target: T2, human APLP2 extracellular domain expressed with a C-terminal myc-myc-hexahistidine tag (human, UniProt Q06481 32-692); experiment: SPR (Biacore 4000), antibody captured on anti-human Fc, hAPLP2-MMH injected, 37 C
# T2 construct: also called hAPLP2-MMH; APLP2.mmh
# T2 sequence (Q06481 other isoform, or with tags, fused parts or gaps): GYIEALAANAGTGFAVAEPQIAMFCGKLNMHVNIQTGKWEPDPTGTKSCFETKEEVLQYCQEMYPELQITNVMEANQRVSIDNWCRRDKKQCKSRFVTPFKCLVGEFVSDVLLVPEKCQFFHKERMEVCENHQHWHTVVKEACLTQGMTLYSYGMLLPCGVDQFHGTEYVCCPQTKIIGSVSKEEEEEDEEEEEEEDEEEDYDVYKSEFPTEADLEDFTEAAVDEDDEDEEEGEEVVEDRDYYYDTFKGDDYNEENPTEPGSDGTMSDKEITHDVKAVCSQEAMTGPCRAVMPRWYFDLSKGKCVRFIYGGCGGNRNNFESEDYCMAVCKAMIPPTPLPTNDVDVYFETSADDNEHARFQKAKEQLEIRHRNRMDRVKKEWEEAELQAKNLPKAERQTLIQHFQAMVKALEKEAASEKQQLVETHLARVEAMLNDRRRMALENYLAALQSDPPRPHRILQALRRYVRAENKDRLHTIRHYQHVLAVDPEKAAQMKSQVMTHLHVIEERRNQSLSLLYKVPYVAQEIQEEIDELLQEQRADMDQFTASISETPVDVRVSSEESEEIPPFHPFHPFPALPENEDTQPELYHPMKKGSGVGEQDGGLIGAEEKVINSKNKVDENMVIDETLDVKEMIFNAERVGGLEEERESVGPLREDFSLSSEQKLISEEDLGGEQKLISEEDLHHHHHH
# Protocol: (§4) Equilibrium dissociation constants (KD values) for HER2 and APLP2 binding to purified anti-HER2xAPLP2 bispecific and parental antibodies were determined using a real-time surface plasmon resonance biosensor using a Biacore 4000 instrument. The Biacore sensor surface was first derivatized by amine coupling with a monoclonal mouse anti-human Fc antibody (GE, Cat #BR-1008-39) to capture anti-HER2xAPLP2 bispecific monoclonal antibodies. […] Kinetic association rate constant (ka) and dissociation rate constant (kd) were determined by fitting the real-time sensorgrams to a 1:1 binding model using Scrubber 2.0c curve fitting software. Binding dissociation equilibrium constants (KD) and dissociative half-lives (t1/2) were calculated from the kinetic rate constants as: […]
# [5] = biological target: T1, human HER2 expressed on cells (cancer …); experiment: imaging, Alexa647-labelled antibody 10 ug/mL at 4 C on BT483 cells; signal per nuclei, normalised to the highest cell line
# Protocol: (§5) To test the ability of bispecific anti-HER2xAPLP2 molecules described herein to bind to cells lines expressing various levels of HER2, a high content imaging assay was performed. […] Cells were plated on collagen-coated, black wall, 96-well, optical plates (Greiner, Cat #655936) at 2.5×10⁵ cells per well in their appropriate culture media, which is described for each cell line/culture in Table 6, and incubated overnight at 37° C. in 5% CO₂.
# as §1, §2
# [6] = biological target: T2, human APLP2 extracellular domain …; experiment: SPR, antibody captured, hAPLP2-MMH injected, 25 C
# [7] = biological target: T1, human HER2 expressed on cells (cancer …); experiment: imaging, Alexa647-labelled antibody 10 ug/mL at 4 C on NLE cells; signal per nuclei, normalised to the highest cell line
# Protocol: as §1, §2
# [8] = biological target: T1, human HER2 expressed on cells (cancer …); experiment: imaging, Alexa647-labelled antibody 10 ug/mL at 4 C on MCF7 cells; signal per nuclei, normalised to the highest cell line
# Protocol: as §1, §2
# [9] = biological target: T1, human HER2 expressed on cells (cancer …); experiment: imaging, Alexa647-labelled antibody 10 ug/mL at 4 C on NBE cells; signal per nuclei, normalised to the highest cell line
# Protocol: as §1, §2
# [10] = biological target: T1, human HER2 expressed on cells (cancer …); experiment: imaging, Alexa647-labelled antibody on MDA-MB-361 cells at 4 C; No Block
# Protocol: as §3
# [11] = biological target: T1, human HER2 expressed on cells (cancer …); experiment: imaging, Alexa647-labelled antibody 10 ug/mL at 4 C on MDA-MB-361 cells; signal per nuclei, normalised to the highest cell line
# Protocol: as §1, §2
# [12] = biological target: T1, human HER2 expressed on cells (cancer …); experiment: imaging, Alexa647-labelled antibody 10 ug/mL at 4 C on SKBR3 cells; signal per nuclei, normalised to the highest cell line
# Protocol: as §5, §1, §2
# [13] = biological target: T3, human HER2 extracellular domain expressed with a C-terminal myc-myc-hexahistidine tag (human, UniProt P04626 23-652); experiment: SPR (Biacore 4000), antibody captured on anti-human Fc, hHER2-MMH injected, 37 C
# T3 construct: also called hHER2-MMH; HER2.mmh
# Protocol: as §4
# [14] = biological target: T1, human HER2 expressed on cells (cancer …); experiment: imaging, Alexa647-labelled antibody on MDA-MB-361 cells at 4 C; competitors hHER2-MMH + hAPLP2-MMH
# Protocol: as §3
# [15] = biological target: T1, human HER2 expressed on cells (cancer …); experiment: imaging, Alexa647-labelled antibody 10 ug/mL at 4 C on MDA-MB-453 cells; signal per nuclei, normalised to the highest cell line
# Protocol: as §1, §2
# [16] = biological target: T1, human HER2 expressed on cells (cancer …); experiment: imaging, Alexa647-labelled antibody 10 ug/mL at 4 C on T47D cells; signal per nuclei, normalised to the highest cell line
# Protocol: as §1, §2
# [17] = biological target: T1, human HER2 expressed on cells (cancer …); experiment: imaging, Alexa647-labelled antibody on MDA-MB-361 cells at 4 C; competitor hHER2-MMH
# Protocol: as §3
binder,measurement,setting,value
B1,Antibody bound (% of highest),[1],1%
same,Antibody bound (% of highest),[2],17%
same,Bispecific antibody signal (Fold over blank),[3],13 fold over blank
same,100 nM hAPLP2-MMH Bound (RU),[4],13 RU
same,Kd,[4],281 nM
same,koff,[4],0.00977 s⁻¹
same,kon,[4],34700 M⁻¹ s⁻¹
same,t½,[4],1.2 min
same,Antibody bound (% of highest),[5],22%
same,90 nM hAPLP2-MMH Bound (RU),[6],13.4 RU
same,Kd,[6],8.5 nM
same,koff,[6],0.000782 s⁻¹
same,kon,[6],92000 M⁻¹ s⁻¹
same,t½,[6],14.8 min
same,Antibody bound (% of highest),[7],4%
same,Antibody bound (% of highest),[8],9%
same,Antibody bound (% of highest),[9],10%
same,Bispecific antibody signal (Fold over blank),[10],14 fold over blank
same,Antibody bound (% of highest),[11],35%
same,Antibody bound (% of highest),[12],100%
same,Kd,[13],4.85 nM
same,koff,[13],0.0009 s⁻¹
same,kon,[13],186000 M⁻¹ s⁻¹
same,t½,[13],13 min
same,Bispecific antibody signal (Fold over blank),[14],5 fold over blank
same,Antibody bound (% of highest),[15],31%
same,Antibody bound (% of highest),[16],7%
same,Bispecific antibody signal (Fold over blank),[17],3 fold over blank
